Data on five molecules can be found in patent publication US20250163161A1 (TECHNISCHE UNIVERSIT T DARMSTADT, published 2025).

What is called EC50 is the concentration that produces a half-maximal response. Usually Kd stands for the constant that tells how readily two partners part at equilibrium. One may read the koff as the first-order rate constant of dissociation. The low end stands for a long-lived complex, the high end for a short-lived complex. As a reminder, the kon is the rate constant with which the complex forms. High values mean fast association, low ones slow association.

Where two headings read alike, the source gives them in different places.

The target in assay [1] is T1, EGFR and PD-L1 on EGFR/PD-L1 double positive A431 cells (UniProt P00533 25-1210; Q9NZQ7 19-290).
T1 construct: whole, on cells; Two separate cell-surface proteins, not a complex; also called A431 (EGFR+/PD-L1+)
Nature of the assay: flow cytometry on EGFR/PD-L1 double-positive A431 cells, anti-human Fc PE detection.

Assay [2] has as its target T2, programmed death-ligand 1 (PD-L1), soluble, as used in BLI (UniProt Q9NZQ7 19-238).
T2 construct: extracellular domain; also called PD-L1-ECD
Briefly: BLI. (In general: BLI is a label-free optical method that tracks binding on a fibre tip over time.)

Assay [3] concerns the target T3, epidermal growth factor receptor (EGFR), soluble, as used in BLI (UniProt P00533 25-645).
T3 construct: extracellular domain; also called EGFR-ECD
Nature of the assay: BLI.

Assay [4] concerns the target T2, programmed death-ligand 1 (PD-L1), …. Nature of the assay: BLI. The source holds these as a separate data set.
Assay [5] addresses T3, epidermal growth factor receptor …. Nature of the assay: BLI. The source holds these as a separate data set.
For assay [6], the target named is PD-L1 on cells (A431; cells of the Promega PD-L1 blockade assay kit) (UniProt Q9NZQ7 19-290). Briefly: cell-based or functional assay.
PD-L1 on cells (A431; cells of the Promega PD-L1 blockade assay kit), sequence (Q9NZQ7 19-290): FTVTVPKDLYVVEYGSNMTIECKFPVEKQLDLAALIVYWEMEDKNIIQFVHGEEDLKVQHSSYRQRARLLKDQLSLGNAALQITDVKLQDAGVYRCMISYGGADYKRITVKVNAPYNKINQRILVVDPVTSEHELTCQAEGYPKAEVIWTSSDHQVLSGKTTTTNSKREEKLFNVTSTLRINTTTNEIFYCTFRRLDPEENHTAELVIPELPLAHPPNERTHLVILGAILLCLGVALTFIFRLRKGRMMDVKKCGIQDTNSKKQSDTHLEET
In assay [7] the target is 475-621 (human, UniProt P00533). Nature of the assay: flow cytometry on yeast cells displaying truncated EGFR fragments; detection with goat anti-human Fc PE. In general terms: A flow cytometer gives signals particle by particle.
Assay [8] concerns the target 294-543 (human, UniProt P00533). Described as above.
Assay [9] has as its target 273-621 (human, UniProt P00533). Described as above.
Assay [10] deals with T4, soluble IL-6R (sIL-6R-TS) (UniProt P08887 20-358).
T4 construct: not shown: TwinStrepII tag (TS)
T4 sequence (looked up): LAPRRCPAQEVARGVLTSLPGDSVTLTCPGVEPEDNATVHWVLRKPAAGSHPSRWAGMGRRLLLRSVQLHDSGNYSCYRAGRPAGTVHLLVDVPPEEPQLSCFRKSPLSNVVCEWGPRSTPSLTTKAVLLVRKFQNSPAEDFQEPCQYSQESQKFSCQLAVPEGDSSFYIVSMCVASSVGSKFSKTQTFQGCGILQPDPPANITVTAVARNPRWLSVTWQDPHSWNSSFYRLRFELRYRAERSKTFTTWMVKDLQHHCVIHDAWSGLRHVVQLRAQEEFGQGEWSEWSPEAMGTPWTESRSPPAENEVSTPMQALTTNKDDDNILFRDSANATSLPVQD
Nature of the assay: BLI simultaneous binding; antibody on AHC biosensors; 200 nM IL-6R, then 500 nM EGFR, then 500 nM PD-L1, 300 s each.

Assay [11] has as its target T1, EGFR and PD-L1 on EGFR/PD-L1 double …. Briefly: flow cytometry on A431 cells.
Assay [12] has the same target. Nature of the assay: flow cytometry; Jurkat cells with antibody mixed with Calcein AM-stained A431 cells; anti-human Fc PE detection; Q2 = PE-positive Calcein-stained A431 events; Neg Ctrl Q2 0.13.
Assay [13] addresses T5, His6-EGFR-TS (soluble, monomeric EGFR) (UniProt P00533 25-645).
T5 construct: not shown: TwinStrepII tag (TS)
Briefly: BLI, antibody on AHC biosensors.

Assay [14] concerns the target T6, His6-PD-L1-TS (soluble, monomeric PD-L1) (UniProt Q9NZQ7 19-238).
T6 construct: not shown: TwinStrepII tag (TS)
Nature of the assay: BLI, antibody on AHC biosensors.

For assay [15], the target named is T7, IL-6R on cells (THP-1, A549) (UniProt P08887 20-468, limits assumed).
T7 construct: whole, on cells; also called THP-1 (IL-6R+/PD-L1+)
T7 sequence (looked up): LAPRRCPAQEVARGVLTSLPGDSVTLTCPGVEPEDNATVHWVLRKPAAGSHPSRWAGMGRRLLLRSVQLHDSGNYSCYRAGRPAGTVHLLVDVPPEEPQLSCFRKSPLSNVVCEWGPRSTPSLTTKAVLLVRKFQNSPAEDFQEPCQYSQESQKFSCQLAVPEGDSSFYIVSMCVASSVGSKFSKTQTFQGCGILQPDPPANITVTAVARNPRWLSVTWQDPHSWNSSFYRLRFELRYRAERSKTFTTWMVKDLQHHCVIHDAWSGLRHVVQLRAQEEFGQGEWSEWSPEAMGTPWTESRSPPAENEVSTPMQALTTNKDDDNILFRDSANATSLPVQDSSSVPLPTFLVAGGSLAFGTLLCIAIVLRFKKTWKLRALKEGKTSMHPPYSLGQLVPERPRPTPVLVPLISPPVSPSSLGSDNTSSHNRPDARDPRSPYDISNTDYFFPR
Briefly: flow cytometry on THP-1 cells; legend: - represents no significant binding.

Assay [16] deals with T8, CD3 (CD3ε) on cells (Jurkat; TCR/CD3 effector cells) (UniProt P07766 23-207, limits assumed).
T8 construct: whole, on cells; that number is the CD3ε entry; also called Jurkat (CD3+)
T8 sequence (P07766 23-207 limits assumed): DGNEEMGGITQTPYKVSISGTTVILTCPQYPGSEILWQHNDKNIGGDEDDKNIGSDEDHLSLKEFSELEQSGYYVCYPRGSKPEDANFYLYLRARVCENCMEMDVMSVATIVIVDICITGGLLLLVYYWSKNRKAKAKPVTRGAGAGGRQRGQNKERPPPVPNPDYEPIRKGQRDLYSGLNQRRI
Nature of the assay: flow cytometry; Jurkat cells with antibody mixed with Calcein AM-stained A431 cells; anti-human Fc PE detection; Q3 = CD3-binding on Jurkats.

The target of assay [17] is T4, soluble IL-6R (sIL-6R-TS). Nature of the assay: BLI, antibody on AHC biosensors.

T6 sequence (Q9NZQ7 other isoform, or with tags, fused parts or gaps): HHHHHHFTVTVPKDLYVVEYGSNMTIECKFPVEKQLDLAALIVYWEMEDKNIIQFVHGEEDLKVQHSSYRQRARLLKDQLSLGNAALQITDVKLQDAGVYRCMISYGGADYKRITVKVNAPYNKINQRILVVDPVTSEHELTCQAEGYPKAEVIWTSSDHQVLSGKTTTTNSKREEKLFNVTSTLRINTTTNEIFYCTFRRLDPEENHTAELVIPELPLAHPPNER
T2 sequence (Q9NZQ7 19-238): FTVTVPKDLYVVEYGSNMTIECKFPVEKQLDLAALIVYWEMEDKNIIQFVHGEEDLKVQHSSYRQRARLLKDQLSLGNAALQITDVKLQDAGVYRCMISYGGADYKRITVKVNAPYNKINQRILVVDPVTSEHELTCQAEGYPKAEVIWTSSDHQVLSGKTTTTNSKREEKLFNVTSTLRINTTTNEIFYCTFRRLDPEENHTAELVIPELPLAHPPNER

B1: HCP-LCE (heavy chain PD-L1-light chain EGFR) Two-in-One antibody (bispecific antibody, human IgG1, lambda, L234A L235A, V domains shown)
VH: AVTLDESGGGLQTPGGALSLVCKASGFDFSSYDMAWVRQAPGKGLEWVAGIKSNGPWTNYGAAVKGRATISRDNGQSTVRLQLNNLRAEDTAIYYCAKPGAGYVGWDAAGTIDSWGHGTEVIVSS
VL: ALTQPSSVSANLGETVKITCSGGAYSDCGWYQQKSPGSAPVTVIYYNDKRPSDIPSRFSGSTFGSTATLTITGVQAEDEAVYYCGGYDSRTGYVGVFGAGTTLTVLG
notes: Symmetric full-length IgG; heavy chain is the ICI2 heavy chain, lambda CL; also called 2in1
B1 yielded an EC50 in assay [1] of 1.37 nM. The Kd in assay [2] was determined as 78.3 nM; in [3], 236 nM; in assay [4], 78.3 nM; in assay [5], 236 nM. Also, the koff turned out to be 0.0762 s⁻¹ in [4] and 0.0981 s⁻¹ in [5]. For the same molecule, the kon was determined as 973000 M⁻¹ s⁻¹ in [4] and 415000 M⁻¹ s⁻¹ in assay [5]. Also, the “EC50, cell-based PD-1/PD-L1 blockage assay (luciferase activity)” value in assay [6] was found to be 214 nM. For the same molecule, the binding result in [7], in assay [8] and in [9] was “no binding” throughout.

B2: (αCD3ε)K+H (bispecific antibody)
heavy 1: not shown
heavy 2: B1 VH
light: ALTQPSSVSANLGETVKITCSGGAYSDCGWYQQKSPGSAPVTVIYYNDKRPSDIPSRFSGSTFGSTATLTITGVQAEDEAVYYCGGYDSRTGYVGVFGAGTTLTVLGQPKANPTVTLFPPSSEELQANKATLVCLISDFYPGAVTVAWKADGSPVKAGVETTKPSKQSNNKYAASSYLSLTPEQWKSHRSYSCQVTHEGSTVEKTVAPTECS
notes: Control variant with anti-CD3ε scFv fused to the N-terminus of the VH of the knob chain; not shown: CH1 and Knob-Fc (IgG1 LALA) with Twin-StrepII tag; CH1 and Hole-Fc (IgG1 LALA) with His6 tag
As to B2, the binding result is reported as “no binding (tested: 200 nM)” in assay [10] and “no binding” in [15]. The On-cell affinity in [11] is 1.82 nM. For the same molecule, the “Q2 (FITC+/PE+) % of events” value in [12] was 15%. For the same molecule, the values for the Kd in [13] and in assay [14] were 236 nM and 108 nM, respectively.

B3: K+H (parental two-in-one antibody in Knob-into-Hole, effector-silenced LALA IgG1 format) (bispecific antibody, V domains shown)
VH: B1 VH
VL: B1 VL
notes: HCP-LCE Fabs on IgG1 LALA Knob-into-Hole Fc; also called parental K+H antibody
For the molecule B3, the binding result is “no binding (tested: 200 nM)” in assay [10], “no binding” in assay [16] and “no binding” in [15]. The same molecule had an On-cell affinity in assay [11] of 2.5 nM. In [12], the “Q2 (FITC+/PE+) % of events” value was 14%. Besides, the results for the Kd in assay [13] and in assay [14] were 173 nM and 92.9 nM, respectively.

B4: (αCD3ε)K(αIL-6R)+H(αIL-6R) TriTECM (bispecific antibody)
heavy 1: not shown
heavy 2: AVTLDESGGGLQTPGGALSLVCKASGFDFSSYDMAWVRQAPGKGLEWVAGIKSNGPWTNYGAAVKGRATISRDNGQSTVRLQLNNLRAEDTAIYYCAKPGAGYVGWDAAGTIDSWGHGTEVIVSSASTKGPSVFPLAPSSKSTSGGTAALGCLVKDYFPEPVTVSWNSGALTSGVHTFPAVLQSSGLYSLSSVVTVPSSSLGTQTYICNVNHKPSNTKVDKRVEPKSCDKTHTCPPCPAPEAAGGPSVFLFPPKPKDTLMISRTPEVTCVVVDVSHEDPEVKFNWYVDGVEVHNAKTKPREEQYNSTYRVVSVLTVLHQDWLNGKEYKCKVSNKALPAPIEKTISKAKGQPREPQVYTLPPSREEMTKNQVSLSCAVKGFYPSDIAVEWESNGQPENNYKTTPPVLDSDGSFFLVSKLTVDKSRWQQGNVFSCSVMHEALHNRFTQKSLSLSPGGSHHHHHHGGGGSGGGGSGGGGSSEVQLVESGGGLVQPGRSLRLSCAASRFTFDDYAMHWVRQAPGKGLEWVSGISWNSGRIGYADSVKGRFTISRDNAENSLFLQMNGLRAEDTALYYCAKGRDSFDIWGQGTMVTVSSAGGGGSGGGGSGGGGSSDIQMTQSPSSVSASVGDRVTITCRASQGISSWLAWYQQKPGKAPKLLIYGASSLESGVPSRFSGSGSGTDFTLTISSLQPEDFASYYCQQANSFPYTFGQGTKLEIKR
light: B2 light
notes: Fabs from HCP-LCE; effector-silenced IgG1 LALA; also called scFv(VH)-IgG1(H)-scFv2
Consider B4, for which, in [11], the On-cell affinity is 12.3 nM. Besides, the “Q2 (FITC+/PE+) % of events” value in assay [12] is 16.5%. Besides, the Kd in assay [13] turned out to be 271 nM; in assay [17], 2.71 nM; in [14], 130 nM.

B5: K(αCD3ε)+H(αIL-6R) TriTECM (bispecific antibody)
heavy 1: not shown
heavy 2: B4 heavy 2
light: B2 light
notes: Fabs from HCP-LCE; effector-silenced IgG1 LALA; also called IgG1(H)-scFv2
Consider B5, for which the On-cell affinity in assay [11] came out at 21.2 nM. In addition, the “Q2 (FITC+/PE+) % of events” value in assay [12] was 12.2%. Besides, the Kd in assay [13] was determined as 172 nM; in [17], 1.8 nM.
